Reference: article PMC7617879

Biological target: catalytic domain of MMP-14 (MMP-14CAT) (human)
Assay: enzyme inhibition assay

Ki: 1.57 nM
B1: N-TIMP2-S31PrK, P16035 27-153 (domain or fragment)
chain: CSCSPVHPQQAFCNADVVIRAKAVSEKEVDKGNDIYGNPIKRIQYEIKQIKMFKGPEKDIEFIYTAPSSAVCGVSLDVGGKKEYLIAGKAEGDGKMHITLCDFIVPWDTLSTTQKKSLNHRYQMGCE
modifications: here or on the partner: propargyl lysine (PrK) at position 31
